The subject of test [1] is serum IgA of celiac disease patients. Nature of the test: IgA reactivity ELISA to wheat food antigens. The note with it: 5 μg/ml coated, sera 1:100, read at 405 nm, FIG. 15. In kind it is binding, human. How it is done: 100 μl of the wheat proteins GG1 (Gamma gliadin 1), GG2 (Gamma gliadin 2), α-purothionin, GluB3-23, C-175, Mal 82 and Mal 43 of a concentration of 5 μg/ml were coated overnight at 4° C. onto Nunc Maxisorp Elisa plates. The remaining free binding sites were blocked with 1% BSA in PBST for 2 hours at room temperature. 100 μl of sera from celiac disease patients, celiac patients on diet and negative controls were added at a dilution of 1:100 in 0.5% BSA in PBST buffer and incubated for 12 hours at 4° C. The plates were washed 5 times in PBST buffer and 100 μl of mouse anti-human IgA1/A2 (BD Biosciences) diluted to 1:1000 in 0.5% BSA/PBST buffer was added and incubated at room temperature for 5 hours. The plates were then washed 5 times with PBST and 100 μl of sheep anti-mouse IgG conjugated with Horse radish peroxidise (HRP) (Amersham) antibodies were added and incubated at 37° C. for one hour.

The test system of test [2] is serum IgA from Dermatitis herpetiformis (DH) patients. As to the kind of experiment: Dermatitis herpetiformis serum IgA reactivity ELISA. In kind it is binding, human. The note with it: 5 μg/ml coated; n=12 DH patients, 2 healthy controls; FIG. 18. How it is done: ELISA plates were coated with 100 μl of 5 μg/ml rGamma gliadin 1, rGamma gliadin 2, α-gliadin peptide p56-75 (α-gli peptide), deamidated α-gliadin peptide (D) and Human serum albumin. The bound proteins were probed with sera from Dermatitis herpetiformis (DH) patients and healthy controls. IgA reactivity to the proteins was detected using mouse anti-human IgA1/A2 and sheep anti-mouse IgG-HRP labelled antibody. (n=12 DH patients and 2 healthy controls).
(In general: An ELISA detects its analyte on a solid surface through an enzyme-linked reagent.)

The subject of test [3] is serum IgE antibodies from patients suffering from wheat food allergy. Nature of the test: IgE reactivity dot blot with sera from wheat food allergic patients. The conditions noted are these: for patients reacting to the recombinant protein (IgE): FIG. 12; for patients showing IgE reactivity: 0.5 μg dotted protein, sera 1:10. It counts as binding, human. The protocol: GluB3-23 is a major allergen in wheat dependent food allergy IgE reactivity of wheat food allergic patients to GluB3-23 and C175 was tested by dot blot analysis shown in FIG. 10 and FIG. 11. 0.5 μg of purified recombinant proteins (GluB3-23 and C175), 2 μg aqueous wheat seed (WSE) extract and 0.5 μg of human serum albumin (HSA) were dotted onto nitrocellulose (Whatman Protran nitrocellulose membrane, Sigma Aldrich) strips and after blocking with buffer A (50 mM sodium phosphate buffer, pH7.4, 0.5% w/v BSA, 0.5% v/v Tween-20, 0.05% w/v NaN3) incubated with 1:10 diluted sera from patients suffering from wheat food allergy. Bound IgE Abs were detected with 1:10 diluted ^125I labeled anti human IgE Abs and visualized by autoradiography.
Sera were obtained from populations of patients suffering from wheat food allergy. Patients were selected according to positive case history, positive Skin Prick Test (SPT), double blind or open food challenge or CAP-test (Phadia, Uppsala, Sweden) to wheat.
The recombinant high molecular weight proteins mal43 and mal82, representing partial proteins of Glu-B1, were tested in dot blots with sera from patients from a population shown in FIG. 11. Sera were obtained from patients suffering from wheat food allergy. Patients were selected according to positive case history and positive Skin Prick Test (SPT) or CAP-test (Phadia, Uppsala, Sweden) to wheat. 0.5 μg of purified recombinant proteins (mal43 and mal82), 2 μg aqueous wheat seed (WSE) extract and 0.5 μg of human serum albumin (HSA) were dotted onto nitrocellulose (Whatman Protran nitrocellulose membrane, Sigma Aldrich) strips and after blocking with buffer A incubated with 1:10 diluted patients sera. Bound IgE Abs were detected with 1:10 diluted ^125I labeled anti human IgE Abs and visualized by autoradiography. […] On the basis of WHO/IRIS Allergen Standardization Committee definition (www.allergen.org), an allergen recognized by 10% of the patients is a minor allergen.
The IgE reactivity of dot-blotted recombinant wheat α-purothionin was tested with serum IgE antibodies from patients suffering from wheat food allergy (Table 3). […] 23% of patients from one population (n=13) and 29% of the patients from another population (n=24) reacted to the recombinant α-purothionin. (FIG. 12).

Test [4] relates to IgE binding to GluB3-23. As to the kind of experiment: IgE inhibition dot blot (sera pre-incubated with recombinant protein). On the set-up: species or system human. The protocol:
An inhibition dot blot was performed with patients' sera. […] Bound IgE Abs were detected with ^125I-labelled anti human IgE Abs and visualized by autoradiography, the dot intensity was measured by a gamma counter.

The mark [5] stands for this setting: another wheat food allergy patient population, FIG. 11.
Setting [6] is: wheat food allergy patient population of FIG. 10.
Setting [7] is: serum Pat 3, pre-incubated with 10 μg protein.
Setting [8] is: serum Pat 8, pre-incubated with 10 μg protein.
The mark [9] stands for this setting: serum Pat 10, pre-incubated with 10 μg protein.
The mark [10] stands for this setting: serum Pat 11, pre-incubated with 10 μg protein.
Where [11] appears, read: serum Pat 12, pre-incubated with 10 μg protein.

B1: GG1: recombinant gamma gliadin 1 with 6×Histidine at the C terminal end, expressed in E. coli (protein)
chain: MNIQVDPSGQVQWLQQQLVPQLQQPLSQQPQQTFPQPQQTFPHQPQQQVPQPQQPQQPFLQPQQPFPQQPQQPFPQTQQPQQPFPQQPQQPFPQTQQPQQPFPQQPQQPFPQTQQPQQPFPQLQQPQQPFPQPQQQLPQPQQPQQSFPQQQRPFIQPSLQQQLNPCKNILLQQSKPASLVSSLWSIIWPQSDCQVMRQQCCQQLAQIPQQLQCAAIHSVVHSIIMQQQQQQQQQQGIDIFLPLSQHEQVGQGSLVQGQGIIQPQQPAQLEAIRSLVLQTLPSMCNVYVPPECSIMRAPFASIVAGIGGQHHHHHH
Regarding B1, in test [1], the IgA reactivity result is on record as “high”. Further, the “IgA reactivity, DH patients versus healthy controls” value in test [2] was “higher IgA reactivity to sera from DH patients than to healthy controls”.

B2: α-purothionin: clone 84-derived wheat allergen expressed as recombinant protein with C-terminal hexahistidine tag in E. coli (protein, listed as Triticum aestivum)
chain: LSSGLSCPKGFPKLALESNSDEPDTIEYCNLGCRSSVCDYMVNAAADDEEMKLYVENCADACVSFCNGDAGLPSLDAY
modifications: C-terminal His6 tag
notes: clone 84-derived wheat allergen expressed as recombinant protein with C-terminal hexahistidine tag in E. coli
Take B2: the “patients reacting to the recombinant protein (IgE)” value in test [3] (another population (n=24)) worked out at 29%; in test [3] (one population (n=13)), 23%. Besides, the IgA reactivity result in test [1] was “negative”.

B3: C175: recombinant protein of clone 175: the three C-terminal regions of GluB3-23 and the hexa-histidine tag (protein)
chain: RQQLGQGQQGYYPTSLQPGQKQQAGQGQQSGQGQQGYYPTSPQQSGQGQQPGQGQPGYYPTSPQQSGQWQQPGQGQQPGQGQQSGQWQLVYYPTSPQQQIVLQQRPPFLQQQQPSLPQQPPFSQQQQQLVLPQQQIPFVHPSILQQLNPCKVFLQQQCSPVAMPQSLARSQMLQQSSCHVMQQQCCQQLPQIPQQSRYEAIRAIIYSIILQEQQQVQGSIQTPQQQPQQLGQCVSQPQQQSQQQLGQQPQQQQLAQGTFLQPHQIAQLEVMTSIALRTLPTMCRVNVPLYRTTTSVPFGVGTGVGSYHHHHHH
On to B3, for which the “patients showing IgE reactivity” value in test [3] (setting [5]) is reported as 73.1%; in test [3] (setting [6]) it was 27.3%. In addition, the “% inhibition of IgE binding” value in test [4] (setting [7]) is 22.6%; in test [4] (setting [8]), 3.0%; in test [4] (setting [9]), 0.0%; in test [4] (setting [10]), 55.3%. For the same molecule, the “bound IgE, dot intensity by gamma counter” value (“bound IgE, dot intensity” for short) in test [4] (setting [7]) came to 650.0 cpm; in test [4] (setting [8]) it was 73.9 cpm; in test [4] (setting [9]) it was 379.1 cpm; in test [4] (setting [10]), 190.0 cpm; in test [4] (setting [11]), 16.2 cpm. In addition, the “potential to inhibit IgE binding to GluB3-23” value in test [4] (summary of Table 2) was “low potential to inhibit IgE binding”. Moreover, the IgA reactivity result in test [1] is on record as “moderate”.

B4: Bet v 1: recombinant protein used for control pre-incubation of sera in the IgE inhibition dot blot (protein)
chain: GVFNYETETTSVIPAARLFKAFILDGDNLFPKVAPQAISSVENIEGNGGPGTIKKISFPEGFPFKYVKDRVDEVDHTNFKYNYSVIEGGPIGDTLEKISNEIKIVATPDGGSILKISNKYHTKGDHEVKAEQVKASKEMGETLLRAVESYLLAHSDAYN
Regarding B4, the “bound IgE, dot intensity” value came out at 829.0 cpm in test [4] (setting [7]), 377.6 cpm in test [4] (setting [9]), 379.0 cpm in test [4] (setting [10]) and 11.5 cpm in test [4] (setting [11]).

B5: mal43: recombinant MBP fusion with part of the repetitive domain of HMW glutenin Glu-B1 and hexa-histidine tag (protein)
chain: RNSGQQLGQGQPGYYPTSQQSEQRQQPGQGKQPGQGQQGYYPTSPQQSGQGQQLGQGQPGYYPTSPQQSGQGQQSGQGQQGYYPTSPQQSGQGQQPGQGQSGYFPTSRQQSGQGQQPGQGQQSGQGQQGQQPGQGQQAYYPTSSQQSRQRQQAGQWQRPGQGQPGYYPTSPQQPGQEQQSGQAQQSGQWQLVYYPTSPQQPGQLQQPAQGQQPAQGQQSAQEQQPGQAQQSGQWQLVYYPTSPQQPGQLQQPAQGQQGYYPTSPQQSGQGQQGYYPTSSRHHHHHH
modifications: left off: large carriers
Take B5: the “patients showing IgE reactivity” value in test [3] (setting [5]) is 30.8%. For the same molecule, the IgA reactivity result in test [1] is given as “moderate”.

B6: mal82: recombinant MBP fusion with part of repetitive region and C-terminal non repetitive region of Glu-B1, hexa-histidine tag (protein)
chain: PTSPQQSGQGQQGYYPTSPQQSGQGQQGYYPTSPQQSGQGQQPGQGQQPRQGQQGYYPISPQQSGQGQQPGQGQQRYYPTSPQQSGQGQQPGHEQQPGQWLQPGQGQQGYYPTSSQQSGQGHQSGQGQQGYYPTSLWQPGQGQQPGQGQQGYASPYHVSAEYQAARLKVAKAQQLAAQLPAMCRLEGSDALSTRQHHHHHH
modifications: left off: large carriers
Regarding B6, the “patients showing IgE reactivity” value in test [3] (setting [5]) is on record as 30.8%. Besides, the IgA reactivity result in test [1] is given as “moderate”.

B7: GluB3-23: recombinant full length s-LMW glutenin GluB3-23 of wheat without signal peptide, plus hexa-histidine tag (protein)
chain: MKTFLIFALLAIVATSAIAQMENSHIPGLERPSQQQPLPPQQTLSHHQQQQPIQQQPQPFSQQQPCSQQQQQPLSQQQQPPFSQQQPPFSQQQQQPLSQQQQPPFSQQQPPFSQQQQPPFSQQQPPFSQQQQPVLPQQPSFSQQQLPPFSQQQSPFSQQQQIVLQQQPPFLQQQQPSLPQQPPFSQQQQQLVLPQQQIPFVHPSILQQLNPCKVFLQQQCSPVAMPQSLARSQMLQQSSCHVMQQQCCQQLPQIPQQSRYEAIRAIIYSIILQEQQQVQGSIQTPQQQPQQLGQCVSQPQQQSQQQLGQQPQQQQLAQGTFLQPHQIAQLEVMTSIALRTLPTMCRVNVPLYRTTTSVPFGVGTGVGSYHHHHHH
Take B7: the figures for the “patients showing IgE reactivity” value in test [3] (setting [5]) and in test [3] (setting [6]) were 80.8% and 54.5%, respectively. The “% inhibition of IgE binding” value is 63.3% in test [4] (setting [7]), 100.0% in test [4] (setting [8]), 100.0% in test [4] (setting [9]) and 93.8% in test [4] (setting [10]). In addition, the “bound IgE, dot intensity” value in test [4] (setting [7]) turned out to be 326.0 cpm; in test [4] (setting [8]) it was 31.5 cpm; in test [4] (setting [9]), 36.0 cpm; in test [4] (setting [10]), 58.9 cpm; in test [4] (setting [11]) it was 17.7 cpm. Also, the IgA reactivity result in test [1] is “moderate”.

(Values after patent publication US20140037661A1, “Wheat Antigens and Peptides for Diagnosis of Wheat Induced Hypersensitivity” (PHADIA AB, priority 2011, published 2014).)
